Reference: the supplement of paper PMC9112550, “Optimization of the antimicrobial peptide Bac7 by deep mutational scanning” (BMC Biology, 2022)

Test system: Escherichia coli TOP10
Assay: shrunken log2 fold change of peptide-encoding DNA abundance (4.5 h post-induction vs induction); higher = less antimicrobial activity (less host growth inhibition)
Details: time post-induction: 4.5 h; library: site-saturation at positions 5, 18, 19, 20
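Also: peptides expressed intracellularly from a pBAD plasmid library in pooled LB shake-flask culture, induced with 0.3% L-arabinose, DNA abundance read by NGS, three biological replicates, DESeq2 with apeglm shrinkage.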

RRIRPRPPRLPRPRPRPVYFPRP
shrunken log2 fold change: -0.671

RRIRPRPPRLPRPRPRPWAQPRP
shrunken log2 fold change: -0.00768

RRIRPRPPRLPRPRPRPWCEPRP
shrunken log2 fold change: -0.0374

RRIRPRPPRLPRPRPRPWDFPRP
shrunken log2 fold change: 0.122

RRIRPRPPRLPRPRPRPWDNPRP
shrunken log2 fold change: -0.00581

RRIRPRPPRLPRPRPRPWDWPRP
shrunken log2 fold change: 0.00784

RRIRPRPPRLPRPRPRPWEAPRP
shrunken log2 fold change: -0.224

RRIRPRPPRLPRPRPRPWEFPRP
shrunken log2 fold change: -0.0818

RRIRPRPPRLPRPRPRPWGYPRP
shrunken log2 fold change: -0.0649

RRIRPRPPRLPRPRPRPWHSPRP
shrunken log2 fold change: -0.134

RRIRPRPPRLPRPRPRPWICPRP
shrunken log2 fold change: -0.182

RRIRPRPPRLPRPRPRPWKGPRP
shrunken log2 fold change: 0.0625

RRIRPRPPRLPRPRPRPWLIPRP
shrunken log2 fold change: -0.31

RRIRPRPPRLPRPRPRPWLKPRP
shrunken log2 fold change: -0.371

RRIRPRPPRLPRPRPRPWMCPRP
shrunken log2 fold change: -0.366

RRIRPRPPRLPRPRPRPWMTPRP
shrunken log2 fold change: 0.0158

RRIRPRPPRLPRPRPRPWMVPRP
shrunken log2 fold change: 0.0262

RRIRPRPPRLPRPRPRPWPPPRP
shrunken log2 fold change: 0.504

RRIRPRPPRLPRPRPRPWQAPRP
shrunken log2 fold change: -0.0268

RRIRPRPPRLPRPRPRPWQEPRP
shrunken log2 fold change: 0.00579

RRIRPRPPRLPRPRPRPWQQPRP
shrunken log2 fold change: -0.0467

RRIRPRPPRLPRPRPRPWSLPRP
shrunken log2 fold change: -0.0559

RRIRPRPPRLPRPRPRPWSQPRP
shrunken log2 fold change: 0.0452

RRIRPRPPRLPRPRPRPWTGPRP
shrunken log2 fold change: -0.125

RRIRPRPPRLPRPRPRPWTMPRP
shrunken log2 fold change: 0.0177

RRIRPRPPRLPRPRPRPWWFPRP
shrunken log2 fold change: -0.133

RRIRPRPPRLPRPRPRPWWVPRP
shrunken log2 fold change: 0.0961

RRIRPRPPRLPRPRPRPWYRPRP
shrunken log2 fold change: -0.601

RRIRPRPPRLPRPRPRPYCHPRP
shrunken log2 fold change: -0.241

RRIRPRPPRLPRPRPRPYCWPRP
shrunken log2 fold change: -0.473

RRIRPRPPRLPRPRPRPYERPRP
shrunken log2 fold change: 0.0304

RRIRPRPPRLPRPRPRPYFFPRP
shrunken log2 fold change: -0.593

RRIRPRPPRLPRPRPRPYGSPRP
shrunken log2 fold change: -0.0157

RRIRPRPPRLPRPRPRPYGTPRP
shrunken log2 fold change: -0.732

RRIRPRPPRLPRPRPRPYHFPRP
shrunken log2 fold change: -0.245

RRIRPRPPRLPRPRPRPYLNPRP
shrunken log2 fold change: -0.765

RRIRPRPPRLPRPRPRPYLWPRP
shrunken log2 fold change: -0.769

RRIRPRPPRLPRPRPRPYMEPRP
shrunken log2 fold change: 1.54

RRIRPRPPRLPRPRPRPYNWPRP
shrunken log2 fold change: -0.731

RRIRPRPPRLPRPRPRPYPDPRP
shrunken log2 fold change: -0.145

RRIRPRPPRLPRPRPRPYPKPRP
shrunken log2 fold change: -0.0921

RRIRPRPPRLPRPRPRPYPTPRP
shrunken log2 fold change: -0.11

RRIRPRPPRLPRPRPRPYPVPRP
shrunken log2 fold change: -0.247

RRIRPRPPRLPRPRPRPYQNPRP
shrunken log2 fold change: -0.339

RRIRPRPPRLPRPRPRPYRVPRP
shrunken log2 fold change: 0.101

RRIRPRPPRLPRPRPRPYRYPRP
shrunken log2 fold change: 0.101

RRIRPRPPRLPRPRPRPYSGPRP
shrunken log2 fold change: -0.524

RRIRPRPPRLPRPRPRPYSHPRP
shrunken log2 fold change: -1.42

RRIRPRPPRLPRPRPRPYSTPRP
shrunken log2 fold change: -0.729

RRIRPRPPRLPRPRPRPYSWPRP
shrunken log2 fold change: -0.046

RRIRPRPPRLPRPRPRPYTKPRP
shrunken log2 fold change: -0.0218

RRIRPRPPRLPRPRPRPYTSPRP
shrunken log2 fold change: -0.261

RRIRPRPPRLPRPRPRPYVKPRP
shrunken log2 fold change: -0.172

RRIRPRPPRLPRPRPRPYVNPRP
shrunken log2 fold change: -1.34

RRIRQRPPRLPRPRPRPAASPRP
shrunken log2 fold change: 0.129

RRIRQRPPRLPRPRPRPACWPRP
shrunken log2 fold change: 0.401

RRIRQRPPRLPRPRPRPADWPRP
shrunken log2 fold change: 0.258

RRIRQRPPRLPRPRPRPAECPRP
shrunken log2 fold change: 0.17

RRIRQRPPRLPRPRPRPAEHPRP
shrunken log2 fold change: 0.166

RRIRQRPPRLPRPRPRPAGCPRP
shrunken log2 fold change: 0.409

RRIRQRPPRLPRPRPRPAHCPRP
shrunken log2 fold change: 0.0134

RRIRQRPPRLPRPRPRPAHFPRP
shrunken log2 fold change: 0.464

RRIRQRPPRLPRPRPRPAHVPRP
shrunken log2 fold change: -0.139

RRIRQRPPRLPRPRPRPALRPRP
shrunken log2 fold change: -0.00883

RRIRQRPPRLPRPRPRPAMDPRP
shrunken log2 fold change: -0.00901

RRIRQRPPRLPRPRPRPAMFPRP
shrunken log2 fold change: 0.0399

RRIRQRPPRLPRPRPRPANRPRP
shrunken log2 fold change: -0.0467

RRIRQRPPRLPRPRPRPAPIPRP
shrunken log2 fold change: 0.34

RRIRQRPPRLPRPRPRPAQNPRP
shrunken log2 fold change: 0.231

RRIRQRPPRLPRPRPRPARHPRP
shrunken log2 fold change: 0.0911

RRIRQRPPRLPRPRPRPARSPRP
shrunken log2 fold change: 0.0407

RRIRQRPPRLPRPRPRPARVPRP
shrunken log2 fold change: 0.109

RRIRQRPPRLPRPRPRPASRPRP
shrunken log2 fold change: -0.124

RRIRQRPPRLPRPRPRPATLPRP
shrunken log2 fold change: -0.0197

RRIRQRPPRLPRPRPRPATWPRP
shrunken log2 fold change: 0.343

RRIRQRPPRLPRPRPRPAVIPRP
shrunken log2 fold change: 0.135

RRIRQRPPRLPRPRPRPAVPPRP
shrunken log2 fold change: -0.0193

RRIRQRPPRLPRPRPRPAWHPRP
shrunken log2 fold change: 0.0212

RRIRQRPPRLPRPRPRPCADPRP
shrunken log2 fold change: -0.116

RRIRQRPPRLPRPRPRPCAVPRP
shrunken log2 fold change: 0.0208

RRIRQRPPRLPRPRPRPCFHPRP
shrunken log2 fold change: -0.425

RRIRQRPPRLPRPRPRPCFNPRP
shrunken log2 fold change: -0.161

RRIRQRPPRLPRPRPRPCFWPRP
shrunken log2 fold change: 0.14

RRIRQRPPRLPRPRPRPCIAPRP
shrunken log2 fold change: -0.0382

RRIRQRPPRLPRPRPRPCILPRP
shrunken log2 fold change: -0.458

RRIRQRPPRLPRPRPRPCIRPRP
shrunken log2 fold change: -0.0303

RRIRQRPPRLPRPRPRPCKEPRP
shrunken log2 fold change: 0.00843

RRIRQRPPRLPRPRPRPCKSPRP
shrunken log2 fold change: 0.00854

RRIRQRPPRLPRPRPRPCLCPRP
shrunken log2 fold change: -0.294

RRIRQRPPRLPRPRPRPCLHPRP
shrunken log2 fold change: -0.0247

RRIRQRPPRLPRPRPRPCLWPRP
shrunken log2 fold change: -0.162

RRIRQRPPRLPRPRPRPCNKPRP
shrunken log2 fold change: 0.0281

RRIRQRPPRLPRPRPRPCQLPRP
shrunken log2 fold change: -0.0105

RRIRQRPPRLPRPRPRPCSIPRP
shrunken log2 fold change: -0.022

RRIRQRPPRLPRPRPRPCSMPRP
shrunken log2 fold change: -0.273

RRIRQRPPRLPRPRPRPCVAPRP
shrunken log2 fold change: 0.317

RRIRQRPPRLPRPRPRPCVDPRP
shrunken log2 fold change: 0.148

RRIRQRPPRLPRPRPRPCVEPRP
shrunken log2 fold change: -0.206

RRIRQRPPRLPRPRPRPCWHPRP
shrunken log2 fold change: -0.129

RRIRQRPPRLPRPRPRPCWMPRP
shrunken log2 fold change: -0.408

RRIRQRPPRLPRPRPRPCWPPRP
shrunken log2 fold change: 0.193

RRIRQRPPRLPRPRPRPCYFPRP
shrunken log2 fold change: -0.734

RRIRQRPPRLPRPRPRPCYNPRP
shrunken log2 fold change: -0.0459

RRIRQRPPRLPRPRPRPDANPRP
shrunken log2 fold change: 0.0607

RRIRQRPPRLPRPRPRPDCPPRP
shrunken log2 fold change: -0.283

RRIRQRPPRLPRPRPRPDDTPRP
shrunken log2 fold change: 0.00151

RRIRQRPPRLPRPRPRPDEFPRP
shrunken log2 fold change: -0.0132

RRIRQRPPRLPRPRPRPDEMPRP
shrunken log2 fold change: -0.0225

RRIRQRPPRLPRPRPRPDETPRP
shrunken log2 fold change: -0.00179

RRIRQRPPRLPRPRPRPDFSPRP
shrunken log2 fold change: 0.0756

RRIRQRPPRLPRPRPRPDGVPRP
shrunken log2 fold change: -0.119

RRIRQRPPRLPRPRPRPDHNPRP
shrunken log2 fold change: -0.328

RRIRQRPPRLPRPRPRPDIRPRP
shrunken log2 fold change: -0.154

RRIRQRPPRLPRPRPRPDKRPRP
shrunken log2 fold change: 0.00102

RRIRQRPPRLPRPRPRPDKTPRP
shrunken log2 fold change: -0.00926

RRIRQRPPRLPRPRPRPDMEPRP
shrunken log2 fold change: 0.104

RRIRQRPPRLPRPRPRPDMHPRP
shrunken log2 fold change: 0.161

RRIRQRPPRLPRPRPRPDMPPRP
shrunken log2 fold change: -0.2

RRIRQRPPRLPRPRPRPDNDPRP
shrunken log2 fold change: -0.0011

RRIRQRPPRLPRPRPRPDPAPRP
shrunken log2 fold change: 0.0492

RRIRQRPPRLPRPRPRPDPKPRP
shrunken log2 fold change: 0.0129

RRIRQRPPRLPRPRPRPDPNPRP
shrunken log2 fold change: -0.187

RRIRQRPPRLPRPRPRPDRKPRP
shrunken log2 fold change: -0.085

RRIRQRPPRLPRPRPRPDSWPRP
shrunken log2 fold change: 0.0403

RRIRQRPPRLPRPRPRPDVCPRP
shrunken log2 fold change: 0.13

RRIRQRPPRLPRPRPRPDVLPRP
shrunken log2 fold change: 0.0137

RRIRQRPPRLPRPRPRPDVQPRP
shrunken log2 fold change: -0.0191

RRIRQRPPRLPRPRPRPDVTPRP
shrunken log2 fold change: 0.143

RRIRQRPPRLPRPRPRPDVYPRP
shrunken log2 fold change: 0.0517

RRIRQRPPRLPRPRPRPDWDPRP
shrunken log2 fold change: -0.00122

RRIRQRPPRLPRPRPRPDWLPRP
shrunken log2 fold change: -0.102

RRIRQRPPRLPRPRPRPDYHPRP
shrunken log2 fold change: -0.269

RRIRQRPPRLPRPRPRPEAHPRP
shrunken log2 fold change: 0.0944

RRIRQRPPRLPRPRPRPEAMPRP
shrunken log2 fold change: 0.00408

RRIRQRPPRLPRPRPRPEAYPRP
shrunken log2 fold change: 0.0335

RRIRQRPPRLPRPRPRPEDGPRP
shrunken log2 fold change: 0.154

RRIRQRPPRLPRPRPRPEEPPRP
shrunken log2 fold change: 0.0685

RRIRQRPPRLPRPRPRPEFWPRP
shrunken log2 fold change: 0.238

RRIRQRPPRLPRPRPRPEGKPRP
shrunken log2 fold change: 0.0352

RRIRQRPPRLPRPRPRPEGLPRP
shrunken log2 fold change: -0.0407

RRIRQRPPRLPRPRPRPEHLPRP
shrunken log2 fold change: -0.00142

RRIRQRPPRLPRPRPRPEIDPRP
shrunken log2 fold change: -0.0412

RRIRQRPPRLPRPRPRPEIFPRP
shrunken log2 fold change: 0.127

RRIRQRPPRLPRPRPRPEIIPRP
shrunken log2 fold change: 0.0359

RRIRQRPPRLPRPRPRPEKEPRP
shrunken log2 fold change: -0.0081

RRIRQRPPRLPRPRPRPEKNPRP
shrunken log2 fold change: 0.172

RRIRQRPPRLPRPRPRPELQPRP
shrunken log2 fold change: -0.0257

RRIRQRPPRLPRPRPRPEMIPRP
shrunken log2 fold change: -0.0264

RRIRQRPPRLPRPRPRPEMRPRP
shrunken log2 fold change: 1.13

RRIRQRPPRLPRPRPRPENHPRP
shrunken log2 fold change: -0.176
